The values below come from US20070248536A1 (SCIL PROTEINS, published 2007).

Test [1] addresses T1, BSA (bovine, UniProt P02769 25-607).
T1 construct: Control antigen
As to the kind of experiment: concentration-dependent ELISA, detection with anti-gamma-II-crystallin antibody-POD. The procedure:
The binding properties of the purified proteins were now tested as described above in a concentration-dependent ELISA. For this purpose, different concentrations (100 nM-10 μM) of the Affilin™ variations were employed and an anti-gamma-II-crystallin antibody (monoclonal antibody conjugate with POD) was employed as the detection antibody.
For orientation: In an ELISA, binding on a coated surface is turned into a signal by an enzyme label.

In test [2] the target is T2, human IgG Fc (human).
T2 construct: domain: Fc; The ELISAs used human monoclonal IgG Fc (Roche); Kept as one molecule; also called human monoclonal IgG Fc portion (Roche); polyclonal IgG Fc
As to the kind of experiment: SPR (BIACORE), IgG Fc immobilised on a CM5 chip, Affilin as analyte. The procedure: In BIACORE experiments the dissociation constants of the three Affilin™ variations were determined. For this purpose, approx. 180 RU of human IgG Fc (50 μg/ml in 50 mM Na citrate, pH 5.0) was immobilized on a CM5 chip. Free binding sites were finally inactivated by 1 M ethanolamin (pH 8.5).
Then, at a flow of 30 μl/min, 6 different concentrations (166 nM-1 μM) were passed over the chip for 180 sec. Afterwards, at the same flow the chip was rinsed with HBS, 0.005% Surfactant P20 (Biacore) for 180 sec. From the resulting sensorgrams using the BiaEvaluation Software (Biacore, Uppsala, Sweden) the following dissociation constants of the Affilin™ variations to IgG Fc could be determined: SPC1-A1 with 230 nM, SPC1-A7 with 280 nM and SPC1-G3 with 800 nM. In competition experiments the specific binding of the Affilin™ variations to IgG Fc and not to the chip matrix could be detected (FIG. 2).

The target in test [3] is proNGF. Kind of test: concentration-dependent ELISA, proNGF coated, apparent KD. Here is the method: FIG. 3: Concentration-dependent ELISA for the detection of the binding of SPC7-E9 to proNGF. The microtiter plate was coated with 10 μg/mi of proNGF. As the detection antibody served an anti-human gamma-II-crystallin antibody-POD conjugate in a dilution of 1:1000. The absorption values presented are mean values of two parallel measurements.

For test [4], the target named is proNGF. As to the kind of experiment: SPR (BIACORE), SPC7-E9 coupled through amino groups to a CM5 chip, proNGF as analyte. The procedure:
FIG. 9: Sensorgrams of the Biacore experiments for the binding of SPC7-E9 to a CM5 chip with proNGF. 280 RU of […] were immobilized and different concentrations of proNGF passed over the chip. As the running buffer served HBS-EP with a flow rate of 30 μl/min.
2.) Furthermore, SPC7-E9 could be coupled unspecifically via surface-exposed amino groups (lysines) by means of NHS/EDC to the carboxyl groups of the BIACORE dextrane matrix in the following manner: The CM5 chip was activated for 7 min with NHS/EDC, and afterwards purified SPC7-E9 (in 20 mM Na phosphate buffer, pH 6.0) was passed over the chip for further 7 min. After the coupling was carried out the remaining reactive groups were deactivated for 7 min with 1 M ethanolamine (pH 8.5). For the analysis of dissociation constants the target proNGF was passed over the chip in different concentrations, the binding was monitored online (FIG. 9), and the curves were subsequently evaluated with the BiaEvaluation Software. […] After kinetic measurements the chip was regenerated with 0.1 glycin (pH 2.2), 10 mM HCl, 10 mM NaOh, 6 M Gua/HCl, 6 M urea and 20% ethanol. In this way, the binding activity of the Affilin™ chip was unchanged even after several regeneration cycles
For orientation: SPR reads the build-up and loss of mass on a sensor chip optically.

Changes are numbered by the printed parent chain.

T1 sequence (P02769 25-607 limits assumed): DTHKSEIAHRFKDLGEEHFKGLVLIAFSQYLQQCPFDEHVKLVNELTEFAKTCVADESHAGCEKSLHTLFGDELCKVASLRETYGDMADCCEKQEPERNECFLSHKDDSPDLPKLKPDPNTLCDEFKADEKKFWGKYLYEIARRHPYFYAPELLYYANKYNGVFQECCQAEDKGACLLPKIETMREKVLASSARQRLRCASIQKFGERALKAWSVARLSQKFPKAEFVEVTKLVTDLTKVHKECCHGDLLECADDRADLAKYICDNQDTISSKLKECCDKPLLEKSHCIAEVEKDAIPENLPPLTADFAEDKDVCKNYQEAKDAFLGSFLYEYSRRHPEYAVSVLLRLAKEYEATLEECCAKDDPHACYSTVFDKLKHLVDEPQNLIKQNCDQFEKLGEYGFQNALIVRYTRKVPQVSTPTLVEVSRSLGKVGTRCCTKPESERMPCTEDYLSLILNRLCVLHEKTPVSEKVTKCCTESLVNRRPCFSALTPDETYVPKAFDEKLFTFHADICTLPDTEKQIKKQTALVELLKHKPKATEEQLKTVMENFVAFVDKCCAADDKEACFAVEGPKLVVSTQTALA
Chain of proNGF (P01138 19-241): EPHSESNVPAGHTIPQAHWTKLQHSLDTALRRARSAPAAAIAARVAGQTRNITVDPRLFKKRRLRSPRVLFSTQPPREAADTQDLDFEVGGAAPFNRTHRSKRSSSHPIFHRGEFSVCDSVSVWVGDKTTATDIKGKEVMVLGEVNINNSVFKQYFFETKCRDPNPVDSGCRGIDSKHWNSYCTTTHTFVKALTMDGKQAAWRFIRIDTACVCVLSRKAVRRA

B1: human wildtype gamma-II-crystallin (other, UniProt P07316 1-175, looked up)
chain: MGKITFYEDRAFQGRSYECTTDCPNLQPYFSRCNSIRVESGCWMIYERPNYQGHQYFLRRGEYPDYQQWMGLSDSIRSCCLIPPHSGAYRMKIYDRDELRGQMSELTDDCISVQDRFHLTEIHSLNVLEGSWILYEMPNYRGRQYLLRPGEYRRFLDWGAPNAKVGSLRRVMDLY
notes: also called human wildtype gamma-crystallin
Consider B1, for which, in test [1], the binding result is “no binding”.

B2: Affilin variation SPC1-A1 (designed binder)
chain: MGFIWFMEDRAFQGRRYDCGTDCPNLQPYFSRCNSIKVKSGCWMIYERPNYQGHRHQYFLRRGEYPDYQQWMGLSDSIRSCCLIPPHSGAYRMKIYDRDELRGQMSELTDDCLSVQDRFHLTEIHSLNVLEGSWILYEMPNYRGRQYLLRPGEYRRFLDWGAPNAKVGSLRRVMDLYA
notes: Selected from the human gamma-II-crystallin library CR20
Consider B2, for which the Kd in test [2] amounted to 230 nM. Also, the binding result in test [1] is “no binding (tested: 100 nM-10 µM)”.

B3: Affilin variation SPC1-G3 (designed binder)
chain: B2 chain with F3S, W5I, M7L, R16I, D18G, G20T, K37V, K39Q
notes: Selected from library CR20
In turn, B3 had a Kd in test [2] of 800 nM. For the same molecule, the binding result in test [1] was “no binding (tested: 100 nM-10 µM)”.

B4: Affilin variation SPC1-A7 (designed binder)
chain: B2 chain with F3L, W5C, M7S, D18M, G20L, K37N, K39W
notes: Selected from library CR20; has a free cysteine in variable position 4; not shown: C-terminal tag of six histidines 'already present'
As to B4, the Kd in test [2] was 280 nM. For the same molecule, the binding result in test [1] is “no binding (tested: 100 nM-10 µM)”.

B5: Affilin variation SPC7-E9 (designed binder)
chain: MGFICFLEDRAFQGRSYACDTDCPNLQPYFSRCNSISVLSGCWMIYERPNYQGHQYFLRRGEYPDYQQWMGLSDSIRSCCLIPPHSGAYRMKIYDRDELRGQMSELTDDCLSVQDRFHLTEIHSLNVLEGSWILYEMPNYRGRQYLLRPGEYRRFLDWGAPNAKVGSLRRVMDLYLEHHHHHH
notes: Directed against proNGF; also called SPCJ-E9 (including His6)
For the molecule B5, the Kd in test [3] is 200 nM; in test [4], 1.4 nM.
